Holding throughout (test): radiochemical methyl transfer from (3H)SAM, nonlinear regression
Common to all, as to type: biochemical, Gallus gallus

Substrate in data set [1]: C[S+](CC[C@H](N)C(=O)O)C[C@H]1O[C@@H](n2cnc3c(N)ncnc32)[C@H](O)[C@@H]1O
Particulars: 20 mM carnosine, variable (1H+3H)SAM, 1 mM MgCl2, pH 7.5, 37 °C, labelled compound. From the text: (§1) radiochemical methyl transfer from (3H)SAM, nonlinear regression on chicken HNMT-like protein (recombinant carnosine N-methyltransferase)

Substrate in data set [2]: NCCC(=O)N[C@@H](Cc1cnc[nH]1)C(=O)O
Particulars: non-saturating 1 µM SAM, 1 mM MgCl2, pH 7.5, 37 °C.
Text: as §1

Substrate in data set [3]: C[S+](CC[C@H](N)C(=O)O)C[C@H]1O[C@@H](n2cnc3c(N)ncnc32)[C@H](O)[C@@H]1O
Conditions: 20 mM carnosine, variable (1H+3H)SAM, 1 mM MgCl2, pH 7.5, 37 °C, labelled compound. The text has this: (§2) radiochemical methyl transfer from (3H)SAM, nonlinear regression on carnosine N-methyltransferase (native, chicken pectoral muscle)
The source holds these as a separate data set.

Substrate in data set [4]: NCCC(=O)N[C@@H](Cc1cnc[nH]1)C(=O)O
Conditions: non-saturating 1 µM SAM, 1 mM MgCl2, pH 7.5, 37 °C.
Text: as §2
The source holds these as a separate data set.

B1: chicken HNMT-like protein (recombinant carnosine N-methyltransferase) (Gallus gallus) (protein)
chain: MEPTPEMKRNRLPSMNFEAEILADPHDNSELYVIPSMRSLTAEEYVEAFQSFLDHSTEHQCMDEFNKEVMPHIMAGLGNGKSTINILGVGSGTGEQDLKMIQILQAAHPGVLINNEIIEPNPQHVAAYKELVNRAPDLQGVSFTWHQLTSSEYEQQVKEKNTHKKFDFIHMIQMLYRVEDIPNTIKFFHSCLNHQGKLLIIILSDSSGWASLWKKYRHCLPSTDSGHYITSDSITAVLRKLGIKYHVYEFPSGWDITECFIEGDPAGGHMMDFLTGTKNFLGTAPAALRSRLQEALCQPECSSRKDGRVIFCNNLSMIVAES
notes: full-length ORF from pectoral muscle cDNA, C-terminal His6 tag (pEF6/Myc-His A), expressed in COS-7, HisTrap purified to homogeneity, monomer about 38 kDa (36 kDa without tag)
With B1, in data set [1], the Km amounted to 14 ± 1 µM, the maximal velocity (Vmax) worked out at 0.786 µmol/min/mg and the kcat amounted to 0.519 ± 0.013 s⁻¹. Also, in data set [2], the Michaelis-Menten constant (Km) amounted to 1628 ± 71 µM, the Vmax stood at 0.0519 µmol/min/mg and the kcat is 0.034 ± 0.001 s⁻¹.

B2: carnosine N-methyltransferase (native, chicken pectoral muscle) (Gallus gallus) (protein)
chain: MEPTPEMKRNRLPSMNFEAEILADPHDNSELYVIPSMRSLTAEEYVEAFQSFLDHSTEHQCMDEFNKEVMPHIMAGLGNGKSTINILGVGSGTGEQDLKMIQILQAAHPGVLINNEIIEPNPQHVAAYKELVNRAPDLQGVSFTWHQLTSSEYEQQVKEKNTHKKFDFIHMIQMLYRVEDIPNTIKFFHSCLNHQGKLLIIILSDSSGWASLWKKYRHCLPSTDSGHYITSDSITAVLRKLGIKYHVYEFPSGWDITECFIEGDPAGGHMMDFLTGTKNFLGTAPAALRSRLQEALCQPECSSRKDGRVIFCNNLSMIVAES
notes: about 45 kDa by gel filtration
As to B2, in data set [3], the Km was determined as 11 ± 1 µM, the Vmax came to 0.153 µmol/min/mg and the catalytic constant (kcat) was found to be 0.093 ± 0.002 s⁻¹. Besides, in data set [4], the Km was determined as 1646 ± 157 µM, the Vmax amounted to 0.0138 µmol/min/mg and the kcat was determined as 0.008 s⁻¹.

(Values after article PMC3660329, “Molecular Identification of Carnosine N-Methyltransferase as Chicken Histamine N-Methyltransferase-Like Protein (HNMT-Like)” (PLoS ONE, 2013).)
